Protein production data for 29 sequences are collected here from a protein production outcome set (Wang et al. 2014).
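Note: failed if final PepcDB status was selected cloned or expressed and not failed if soluble or beyond.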

A short description of this data set: label from the status in PepcDB records.
As to “ESRLDRILESGVLRVATTGDYKPFSYRTEEGGYAGFDVDMAQRLAESLGAKLVVVPTSWPNLMRDFADDRFDIAMSGISINLERQRQAYFSIPYLRDGKTPITLCSEEARFQTLEQIDQPGVTAIVNPGGTNEKFARANLKKARILVHPDNVTIFQQIVDGKADLMMTDAIEARLQSRLHPELCAVHPQQPFDFAEKAYLLPRDEAFKRYVDQWLHIAEQSGLLRQ”, the protein production entry is “failed”.
The entry for “ETNEITIGITVTTTGPAAALGIPERNALEFVAKEIGGHPLKVIVLDDGGDPTAATTNARRFVTESKADVIMGSSVTPPTVAVSNVANEAQVPHIALAPLPITPERAKWSVAMPQPIPIMGKVLYEHMKKNNIKTVGYIGYSDSYGDLWFNDLKKQGEAMGLKIVAEERFARPDTSVAGQVLKLVAANPDAILVGASGTAAALPQTSLRERGYKGLIYQTHGAASMDFIRIAGKSAEGVLMASGPVMDPEGQDDSALTKKPGLELNTAYEAKYGPNSRSQFAAHSFDAFKVLERVVPVALKTAKPGTQEFREAIRKALVSEKDIAASQGVYSFTETDRYGLDDRSRILLTVKDGKYVMVK” is “not failed”; for “ETQPESAAFTAPSTDNPIRINFNENPLGMSPKAQAAARDAVVKANRYAKNEILMLGNKLAAHHQVEAPSILLTAGSSEGIRAAIEAYASLEAQLVIPELTYGDGEHFAKIAGMKVTKVKMLDNWAFDIEGLKAAVAAYSGPSIVYLVNPNNPTGTITPADVIEPWIASKPANTMFIVDEAYAEFVNDPRFRSISPMITQGAENIILLKTFSKIHAMAGMRVGYAVAHPTVIALMGRYVAGEKINFSGVDAALASMNDSAFITYSKKSNDVSRQILLKALEDLKLPYLPSEGNFVFHQLVVPLKDYQTHMADAGVLIGRAFPPADNWCRISLGTPQEMQWVADTMREFRKKSWI” it is “not failed”.
Next, “EVPIGFDTDELSFDMSLVLLTGDMQTKASDPNYTYATTEELTIQNCHVAVFDKDGKRIYFKNFYSKDLGEMKTIGNLSGYELQLEGVRTFGKEDKKVSVLVVANANNANNSPFDNLTTYDGVDNSYTAKTIAKGPVTASLLVKIGKSETTLKYNQDNAPVTVSLIQLSAKIEYTGVYKKENGELLEGFSLTKVAGLNASSKITIFNTSAVENGAFSDLAYPTTKPVTFYTYEISDAFKEVILSVQSGVEPKEYPFPANKFIKGNYYRIKGLKSSTEIEWVLENVEDKEVTLDPFE”: “not failed”.
Next, “EVSYAKERVRLITASGRTHDLTVELAVDPSQREQGLMYRRQMAPDHGMLFDFGETRPVMMWMKNTYLPLDMLFIASDGTIRTIHENAVPHSEAIIDSREPVAYVLELNAGTVKRLGVSPGDRLEGAGLPATKRAN”: “not failed”.
For “FDFKAGEEVLARWTDCRYYPAKIEAINKEGTFTVQFYDGVIRCLKRMHIKAMPEDAKGQDWIALVKA”, the protein production entry was “not failed”.
For “FDQAPVLVVGDVMLDRYWHGGTSRISPEAPVPVVKVDQIEDRPGGAANVALNIAALGAPASLVGVTGDDEAAESLTNSLKAAGVVARFQRIADQPTIVKLRVMSRHQQLLRIDFEEPFNTDPLALSAEVYSLLDGIKVLVLSDYGKGALKNHQALIQAARKRGIPVLADPKGKDFAIYRGASLITPNLSEFEAIVGHCEDEAQLVTKGAQLMQELDLGALLVTRGEHGMTLLRPDQQALHLPARAREVFDVTGAGDTVISTLAAAIAAGEELPHAVALANLAAGIVVGKLGTAAISAPELRRAIQR”, the protein production result is on record as “failed”.
Next, “FEDFNTNPYQPSKVPASNLLSTMFNVYACPQQNACQEINCMWASFSGQVTATANWSFGKNIFAYYNASEGHNDSSWGRLYGYIYPSFFLVENSTEKKGVIYAMAQLTRVYGMQLLASLQGPIPYTQMKAGETEAPYDNEQTVWHAMFDDLDNAITILKSAATFGVNQDLAVVDQFYKGDCSKWLKFANTLKLRMAIRISGVEPEYAQTKAQEAVLGGVMESVGDSSYDTTNGGINENGYAIVSGWPEVRANACLVSYMNGYNDPRRPAYFTPQTQTAAGGYVGVRSGSAEIPEPTVYANYSKLFIATDKTLPQPVMYAAEAAFLRAEGALKGWNMGGDAKTFYEKGVRLSFEEFGVSGADDYLADATSIPGNYVDNLIAGHTGNNYTNQSSITIKWEDGADDAKKLERVLTQKWIACYPDPMNGWADFRRTGYPRIFPATESMNADCNTGRGQRRLRFTRSEYNNNKANVEAAVSMLSNGKDSNGTDLWWAMKENGTY”: “not failed”; “FFKGAASSVLELTEAELVTAEAVRSVWQRILPKVLEVEDSTDFFKSGAASVDVVRLVEEVKELCDGLELENEDVYMASTFGDFIQLLVRKLRGDDEE”: “not failed”.
The entry for “FIQIKPGYDYPIISALRAIISGNADAVPDEVGGVSKEKLVELAETMKNAKYGAVLYGLGVTQSRGRDRNVENAVKLIQLLNRHTRWVIWPMRGHYNVVGAGEVPAWEVGYQYAIDFSRGYPR” is “failed”; for “FLNSVLNFSLFLLNAHDSYLEVMRNRDTLSRMISSLEEVLDVSRRAELIEKTLHYLKDMFPGIVLSSVSLLEDGKIKTFFLKNGQIEVVNLKRGIVVKAFETKRDLFVNDVRDFPEFYDVTNGRTRSAAAIFFEYENTPLVLEIEKDSEITEYELSSLKMMARILAIFFSR” it is “failed”; for “FQQTQDWVFIIDEKISRITANQSMRAVFDWPEEEFDFSDKLLGVSQKRRSFYRKLMLSLKEGEHWRGEELIVTANKDEYHVIINVTVGFSSVTNALHYLFVLTDIS” it is “failed”.
Next, “FRPHFLQAPGDLTVQEGKLCRMDCKVSGLPTPDLSWQLDGKPVRPDSAHKMLVRENGVHSLIIEPVTSRDAGIYTCIATNRAGQNSFSLELVVAAKE”: “not failed”.
As for “FSKTQRWAEPGEPICVVCGRYGEYICDKTDEDVCSLECKAKHLLQVKEKEEKS”, the protein production result is recorded as “not failed”.
Next, “FTDITERYQHAEALSESERWIRLITDHVPALIAYLNADLVYEFTNKVYEEWYCWPRGVMLGQSLREVHSEQHYQRLESYVERALAGESVTFEFAETNINNQERYMLRSYVPNRLANGEVVGIFVLIRDITERRRTAEALHQAYQNLELRV”: “failed”.
The entry for “FVNTFIQFKKPIIVAVNGPAIGLGASILPLCDVVWANEKAWFQTPYTTFGQSPDGCSTVMFPKIMGGASANEMLLSGRKLTAQEACGKGLVSQVFWPGTFTQEVMVRIKELASCNPVVLEESKALVRCNMKMELEQANERECEVLKKIWGSAQGMDSMLKYLQRKIDEF” is “failed”; for “GAFDAAQLDVAQAYARHLAVSLQQSLLRQRVARLGRVYEVLSRINALVARCHEREELFDGICRVTVEVGTYRMAWVGVIDPETLNGTVVAFRGEDSDYLRQIRLSAKEDSPYRDRPACKAVRQKEIVVCNDVQEDASLKGLAPHLISYGVRSVACLPVMLDGRAFAVLALFAGDVGAFDRQEMGLLRELASDIGFALDHIQKEERLDYLAYYDS” it is “failed”.
The entry for “GDAPPEIHAIYTDITERTRLEETLTYRSELESKIVDISTRFINTPIDDLDREIEAALQAIGAFVDADRSYVFLFDDEAATMSNTHEWRTEATASTQSRLQNIPYAETPWFMARMRRREGPLRVPRLEDLPPDAAGLRQRLEAGNVQSLLVLPMLNDQDLIGFVGFDAVRQQRDWDADTVMLLRVLSDAISNALQRKTAEKEMLAAKEEAEDANRMKSVFLANMSHEIRTP” is “not failed”; for “GEGIQPSKKLITRDYKVKEFNKIDAGTVGNIYYTQSTDGKTDLQIYGPDNIVALIQVAVKDNTLFLSIDKSKKVRNFKKMKITITSPTLNGISFKGVGDVHIENGLTTDNLDIESKGVGNVDIQSLTCQKLNVQSMGVGDVKLEGTAQIAALHSKGVGNIEAGNLRANAVEASSQGVGDITCNATESIDAAVRGVGSIKYKGSPTIKSLSKKGVGTIKNI” it is “not failed”; for “GEIIEGCRLPVLRRNQDNEDEWPLAEILSVKDISGRKLFYVHYIDFNRRLDEWVTHERLDLKKIQFPKKEAKTP” it is “not failed”.
For the sequence “GEKLLNAASTRGRLCVGIDPHESLLTSWGLPVNVDGLAEFSRACVEAFADTVALVKPQVAFYERFGSAGFAILEETIQTLRERGCLVVSDAKRGDIGSTMAGYASAWLDPASPLSSDAVTVSPYLGFHSLDPVFELAEQHGRGVFVLAATSNPEARELQDQQNADGVSISQQIVDQAAALNAPYMAQGKAGNIGVVIGATLSKPPRLSTLGGAILMPGVGAQGGTASDVDEIAGDMAHLAFPNVSRSILATGPDIAEMKNSVAKN”, the protein production result is “failed”.
Turning to “GGERRELKSLEQVHFAMAFEAPNYRAPDVYAAQVYAMALGGGMSSRLFQKVREERGLCYSIFAQSGAYEDTGQITIYAGTSGEEVADLAGLTVDELKRATEDMSEAEVARARAQLKAGLLMGLESPSNRAERLARLLAIWGRVPGVDEAVEKIDAVTVGAVRDYAERMAQARSALALYGPAEAAPALAQIRERLAA”, the protein production entry is on record as “failed”.
The entry for “GHMAKAYKQAGVDIEAGYQAVALMKEHVQKTMRPEVLGGIGGFGGLFDLSALGYRQPVLISGTDGVGTKLKLAFLLDRHDTIGIDCVAMCVNDIIVQGAEPLFFLDYIACGKAVPEKIAAIVKGVADGCVEAGCALIGGETAEMPGMYDEDEYDLAGFAVGVAEKERLITGETIQAGDALVGLPSSGLHSNGYSLVRRIVFEQAKLSLDEIYEPLDVPLGEELLKPTRIYAKLLRSVRERFTIKGMAHITGGGLIENIPRMLPPGIGARIQLGSWPILPIFDFLREKGSLEEEEMFSVFNMGIGLVLAVSPETAAPLVEWLSERGEPAYIIGEVAKGAGVSFAGGGRA” is “not failed”; for “GKRSHSMKRNPNAPVTKAGWLFKQASSGVKQWNKRWFVLVDRCLFYYKDEKEESILGSIPLLSFRVAAVQPSDNISRKHTFKAEHAGVRTYFFSAESPEEQEAWIQAMGEAARVQ” it is “not failed”.
Next, “GLTNFTRDAEVLYQCAWIHDVMGLETEAMPYYEQAIANGLEGESLCGAYIGLGSTYRCIGEYDKAITVLETGLQQFPGNDVMKVFLSLAKFNVNDHESAMKLLLETVVK”: “failed”; “GMTGFVINTRRAPFDDWRLREALLLAFNFEFINDTVTGGVMPRITSYFSGTDLAYRPGTASGREAELLAPFAADLPPGTLEGYALPQGDGTARNRTNLRRAAQFLEQAGFRIEQGQLLGPDGAPLALRFLLRQGDSDMQTVLEIYTRALERLGIAAQIEKVDNAQYTARVAELDFDLTPFRRDLSLSPGNEQRLYWGSHSAGQPGTRNLMGAASPAIDAMIDRMLAATTEDELTAATRALDRVLTAGRYVIPIWR”: “not failed”.
The entry for “GNNVSDADIRAIKHSERRLRNHFLPQSLFSHCGFEQAFNYKYLRIMRIAVHPQIQQQGIGAQFIHYIELLAKEQGVDFIGASFGVNPELLSFWLNAGFSTARIGFTKDKASGEHSALLIKGL” is “failed”; for “GNSKSRNDRTETVDKEVIKAPEFDADSAYQYIQVQADFGPRVPNTQAHKECGEYLAGQLEKFGAKVYNQYADLIAYDGTILKSRNIIGAYKPESKKRILLCAHWDSRPYADNDPDPKNHHTPILGVNDGASGVGVLLEIARQIQKEQPALGIDIVFFDSEDYGIPEFYDGKYKQDTWCLGSQYWARTPHVQNYNARYGILLDMVGGKDATFYYEGYSARTARSEMKKIWKKAHELGYGKYFVKEDGGETVDDHIYVNKLARIPCVDIINYDAGNPQSSFGSFWHTVNDTMENIDRNTLKAVGQTVMDVIYNEK” it is “not failed”; for “GPVPTPPDNIQVQENFNISRIYGKWYNLAIGSTCPWLKKIMDRMTVSTLVLGEGATEAEISMTSTRWRKGVCEETSGAYEKTDTD” it is “failed”.
